“And” between values parts separate entries of the source, which are not always exact repeats. Equal entries are not always repeated. “Also recorded” adds a separate entry of the source.
What was measured:
Type in all cases: biochemical
[1] = Hydrolysis of synthetic substrate Glut-Ala-Ala-Phe-MNA by NEP and mutants (fluorogenic)
Method: Reactions of 400 µl contained 100 µM Glut-Ala-Ala-Phe-MNA, 1 µg of aminopeptidase and 15 to 100 ng of NEP or mutant NEP depending on their activity in 20 mM MES buffer, pH 6.5. Activity was monitored with a Spectra Max Gemini XS plate reader using an excitation wavelength of 340 nm and an emission wavelength of 425 nm.
(§1) Kinetic constants for NEP and its mutants were obtained using the assay conditions noted above, but with Glut-Ala-Ala-Phe-MNA varied from 20 to 500 µM. Typically 12 data points were obtained. The data were fit to the Michaelis-Menten equation using Prism4 software. The Ki for insulin B chain was obtained by measuring the rate of Glut-Ala-Ala-Phe-MNA hydrolysis in the presence of varying concentrations of insulin B chain from 1 to 40 µM. Data were fit to a Dixon plot (1/rate versus [insulin B chain]) using Prism4 software and the ID50 obtained as the –x intercept, where ID50 corresponds to the concentration of insulin producing 50% inhibition. The actual Ki was obtained from the equation: ID50 = Ki (1+ [Glut-Ala-Ala-Phe-MNA]/KmGlut-Ala-Ala-Phe-MNA), [33].

insulin B chain [2] = test: Insulin B chain as alternate substrate (competitive) inhibitor of Glut-Ala-Ala-Phe-MNA hydrolysis (Dixon plot); details: insulin B chain 1 to 40 µM as competitive inhibitor of Glut-Ala-Ala-Phe-MNA hydrolysis by the enzyme form, 37°C, 20 mM MES, pH 6.5, ID50 converted to Ki
Method: as §1

leu-ENK [3] = test: Rate of leu-ENK hydrolysis (HPLC)
Method: (§2) Cleavage of physiological peptides was measured via reverse phase high performance liquid chromatography (HPLC) following incubation of the purified NEP or its mutants with 15 µM insulin B chain (Sigma Aldrich), 24 µM Aß1–40 (Anaspec), or 64 µM leu-ENK (Sigma) in 100 µL of 20 mM MES, pH 6.5, at 37°C. Reactions were run in triplicate. HPLC was carried out in a Vydac C4 column using a linear gradient from 0.1% trifluoroacetic acid (TFA) in 95% water, 5% acetonitrile to 0.1% TFA in 50% acetonitrile/water at a flow rate of 1 mL/min. Peptides and hydrolysis products were detected at 214 nm and quantified by measuring peak areas. Peptides obtained from HPLC were analyzed on an Applied Biosystems 4800 MALDI TOF/TOF Proteomics Analyzer at the University of Kentucky Proteomics core. This facility is supported in part by grant P20RR020171 from the NIH/NCRR.
(§3) Statistical analysis comparing wild-type NEP and its mutants was performed with Prism 4 software using a two-tailed paired t-test with a 95% confidence interval.

insulin B chain [4] = test: Rate of insulin B chain hydrolysis (HPLC)
Method: as §2, §3

Aß1–40 [5] = test: Rate of Aß1–40 hydrolysis (HPLC)
Method: as §2, §3

leu-ENK [6] = test: Dual substrate assay: leu-ENK hydrolysis in presence of insulin B chain; details: 15 µM insulin B chain and 64 µM leu-ENK together, 37°C, 20 mM MES buffer, pH 6.5
Method: (§4) The rate of cleavage of a substrate mixture is determined by both the kcat for that substrate as well by the affinity for the substrate. […] This is expected, given that each peptide acts as a competitive inhibitor of the other. […] That is the ratio for leu-ENK/insulin B chain cleavage is 3 for NEP^S546E compared to 6 for wild-type NEP.
as §2

insulin B chain [7] = test: Dual substrate assay: insulin B chain hydrolysis in presence of leu-ENK; details: 15 µM insulin B chain and 64 µM leu-ENK together, 37°C, 20 mM MES buffer, pH 6.5
Method: as §4, §2

[8] = test system: leu-ENK and insulin B chain; test: Dual substrate assay: substrate preference leu-ENK versus insulin B chain
Method: as §4, §2

insulin B chain [9] = test: Time course of product peak accumulation from insulin B chain
Excerpt: As a representative of the NEP^F563 and NEP^S546 mutants, we compared the cleavage profile of NEP^F563L and NEP^S546E to that of NEP using time course experiments, Figure 2 . By adjusting the amount of NEP mutant used, the rate of hydrolysis of insulin B chain by all NEP forms was virtually identical. […] Since rates were based on peak areas measured at 214 nm, which in turn is dependent on both the number of peptide bonds and the number of aromatic residues within a given peptide, only the observed rates of change for a particular peptide product can be compared between enzyme forms. A comparison of the rate of change of different peaks within the same enzyme form or between enzyme forms is not valid under our conditions of analysis.
as §2

Aß1–40 [10] = test: Time course of product peak accumulation from Aß1–40
Method: Similar to the analysis conducted with insulin B chain, the linear rate of product accumulation was determined for each peak and normalized to the amount of protein in the reaction, Table 7 . Unlike the hydrolysis of insulin B chain, the hydrolysis of Aß1–40, even at the earliest time points, produced products resulting from multiple cleavage events. Out of the 12 identified product peaks, only 3 could be produced by a single cleavage. Rates for all cleavages were calculated and are given in Figure 4, B–D , but only the three putative primary cleavage sites can be compared.
as §2

[11] = 15 µM insulin B chain, 37°C, 20 mM MES, pH 6.5, 0-180 min, HPLC peak area 214 nm, linear phase
[12] = 24 µM Aß1–40, 37°C, 20 mM MES, pH 6.5, 0-360 min, HPLC peak area, linear phase

B1: NEP^F563L: neprilysin active site mutant, Phe563 to leucine (protein, UniProt P08473 2-750, looked up, variant F563L)
Neprilysin: GKSESQMDITDINTPKPKKKQRWTPLEISLSVLVLLLTIIAVTMIALYATYDDGICKSSDCIKSAARLIQNMDATTEPCTDFFKYACGGWLKRNVIPETSSRYGNFDILRDELEVVLKDVLQEPKTEDIVAVQKAKALYRSCINESAIDSRGGEPLLKLLPDIYGWPVATENWEQKYGASWTAEKAIAQLNSKYGKKVLINLFVGTDDKNSVNHVIHIDQPRLGLPSRDYYECTGIYKEACTAYVDFMISVARLIRQEERLPIDENQLALEMNKVMELEKEIANATAKPEDRNDPMLLYNKMTLAQIQNNFSLEINGKPFSWLNFTNEIMSTVNISITNEEDVVVYAPEYLTKLKPILTKYSARDLQNLMSWRFIMDLVSSLSRTYKESRNAFRKALYGTTSETATWRRCANYVNGNMENAVGRLYVEAAFAGESKHVVEDLIAQIREVFIQTLDDLTWMDAETKKRAEEKALAIKERIGYPDDIVSNDNKLNNEYLELNYKEDEYFENIIQNLKFSQSKQLKKLREKVDKDEWISGAAVVNAFYSSGRNQIVFPAGILQPPLFSAQQSNSLNYGGIGMVIGHEITHGFDDNGRNFNKDGDLVDWWTQQSASNFKEQSQCMVYQYGNFSWDLAGGQHLNGINTLGENIADNGGLGQAYRAYQNYIKKNGEEKLLPGLDLNHKQLFFLNFAQVWCGTYRPEYAVNSIKTDVHSPGNFRIIGTLQNSAEFSEAFHCRKNSYMNPEKKCRVW
With B1 the “Activity relative to wild-type enzyme (Figure S2 legend, in words)” value [1] was “same activity as wild-type enzyme”, the “Specific Activity (Glut-Ala-Ala-Phe-MNA cleavage)” value ([1]; 100 µM Glut-Ala-Ala-Phe-MNA, 37°C, 20 mM MES buffer, pH 6.5, fluorescence ex 340 nm, em 425 nm) was 44 pmol/min/ng and 43.6 ± 0.1 pmol/min/ng and the Km ([1]; Glut-Ala-Ala-Phe-MNA 20 to 500 µM, 37°C, 20 mM MES buffer, pH 6.5, Michaelis-Menten fit) was 81 ± 11 µM. The Ki (insulin B chain [2]) was 1500 ± 300 nM, the “Rate of hydrolysis of leu-ENK” value (leu-ENK [3]; 64 µM leu-ENK, 37°C, 20 mM MES buffer, pH 6.5, disappearance of substrate by HPLC, at least triplicate) was 1.57 ± 0.32 pmol/min/ng and the “leu-ENK cleavage rate relative to wild-type NEP rate” value (leu-ENK [3]; 64 µM leu-ENK, pH 6.5, 37°C) was “approximately 80%”. The “Activity for both Glut-Ala-Ala-Phe-MNA and leu-ENK (in words)” value (leu-ENK [3]; versus wild-type) was “near wild-type levels of activity”, the “Rate of hydrolysis of Insulin B Chain” value (insulin B chain [4]; 15 µM insulin B chain, 37°C, 20 mM MES buffer, pH 6.5, disappearance of substrate by HPLC, at least triplicate) was 1.17 ± 0.18 pmol/min/ng and the “Insulin B chain hydrolysis rate relative to NEP” value (insulin B chain [4]; overall rate, 15 µM insulin B chain) was 1.4 times. The “Preference for insulin B chain over Aß1–40” value (insulin B chain [4]; relative to NEP, from separate single-substrate rates) was “greater than 2 fold”, the “Rate of hydrolysis of Aß1–40” value (Aß1–40 [5]; 24 µM Aß1–40, 37°C, 20 mM MES buffer, pH 6.5, disappearance of substrate by HPLC, at least triplicate) was 116 ± 4 fmol/min/ng and the “Aß1–40 hydrolysis rate relative to wild-type NEP” value (Aß1–40 [5]; overall rate as fraction/times of wild-type rate, 24 µM Aß1–40) was “nearly half the rate of the wild-type enzyme”. For the same molecule, the “leu-ENK hydrolysis rate, dual substrate assay” value (leu-ENK [6]) was 0.97 ± 0.06 pmol/min/ng, the “leu-ENK hydrolysis, activity relative to the uninhibited value” (leu-ENK [6]; numbers in parenthesis) was 0.62 and the “Insulin B Chain hydrolysis rate, dual substrate assay” value (insulin B chain [7]) was 0.19 ± 0.03 pmol/min/ng. The “Substrate preference leu-ENK/insulin B chain (in words)” value ([8]; dual substrate assay, versus wild-type) was “no change in overall substrate preference”, the “Ratio leu-ENK insulin B chain” value ([8]; ratio of rates, 15 µM insulin B chain and 64 µM leu-ENK together) was 5.1 and the “Rate of accumulation of peak 1–5 (single cleavage H^5-L^6)” value (insulin B chain [9]; [11]) was 83 Δarea/min/ng. For the same molecule, the “Rate of accumulation of peak 1–10 (single cleavage H^10-L^11)” value (insulin B chain [9]; [11]) was 135 Δarea/min/ng, the “Rate of accumulation of peak 1–11 (single cleavage L^11-V^12)” value (insulin B chain [9]; [11]) was 16 Δarea/min/ng and the “Rate of accumulation of peak 1–14 (single cleavage A^14-L^15)” value (insulin B chain [9]; [11]) was 266 Δarea/min/ng. The “Rate of accumulation of peak 1–16 (single cleavage Y^16-L^17)” value (insulin B chain [9]; [11]) was 25 Δarea/min/ng, the “Rate of accumulation of peak 15–23 (two cleavages A^14-L^15, G^23-F^24)” value (insulin B chain [9]; [11]) was 64 Δarea/min/ng and the “Rate of accumulation of peak 15–30 (single cleavage A^14-L^15)” value (insulin B chain [9]; [11]) was 282 Δarea/min/ng. For the same molecule, the “Rate of accumulation of peak 17–24 (two cleavages Y^16-L^17, F^24-F^25)” value (insulin B chain [9]; [11]) was 25 Δarea/min/ng, the “Rate of accumulation of peak 17–30 (single cleavage Y^16-L^17)” value (insulin B chain [9]; [11]) was 112 Δarea/min/ng and the “Rate of accumulation of peak 24–30 (single cleavage G^23-F^24)” value (insulin B chain [9]; [11]) was 290 Δarea/min/ng. For the same molecule, the “Unique or missing cleavage sites in insulin B chain versus NEP” value (insulin B chain [9]; 30% substrate hydrolysis, HPLC profile) was “no unique or missing cleavage sites”, the “Cleavage at A^14-L^15 in insulin B chain relative to NEP” value (insulin B chain [9]; times the NEP rate) was roughly 1.4 and the “Cleavage at H^5-L^6 in insulin B chain relative to NEP” value (insulin B chain [9]; times the NEP rate) was roughly 1.4. For the same molecule, the “Cleavage at H^10-L^11 in insulin B chain relative to NEP” value (insulin B chain [9]; times the NEP rate) was 0.8, the “Cleavage at L^11-V^12 in insulin B chain relative to NEP” value (insulin B chain [9]; times the NEP rate) was 0.2 and the “Cleavage at Y^16-L^17 in insulin B chain relative to NEP” value (insulin B chain [9]; times the NEP rate) was roughly 0.7. The “Accumulation rate of peak Aß 1–9 (single cleavage G^9-Y^10)” value (Aß1–40 [10]; [12]) was 0 Δarea/min/ng, the “Accumulation rate of peak Aß 1–16 (single cleavage K^16-L^17)” value (Aß1–40 [10]; [12]) was 17 Δarea/min/ng and the “Accumulation rate of peak Aß 1–17 (single cleavage L^17-V^18)” value (Aß1–40 [10]; [12]) was 22 Δarea/min/ng. For the same molecule, the “Accumulation rate of peak Aß 4–9 (dual cleavages A^3-F^4, G^9-Y^10)” value (Aß1–40 [10]; [12]) was 5 Δarea/min/ng, the “Accumulation rate of peak Aß 4–16 (dual cleavages A^3-F^4, K^16-L^17)” value (Aß1–40 [10]; [12]) was 5 Δarea/min/ng and the “Accumulation rate of peak Aß 4–17 (dual cleavages A^3-F^4, L^17-V^18)” value (Aß1–40 [10]; [12]) was 12 Δarea/min/ng. The “Accumulation rate of peak Aß 10–16 (dual cleavages G^9-Y^10, K^16-L^17)” value (Aß1–40 [10]; [12]) was 11 Δarea/min/ng, the “Accumulation rate of peak Aß 10–17 (dual cleavages G^9-Y^10, L^17-V^18)” value (Aß1–40 [10]; [12]) was 8 Δarea/min/ng and the “Accumulation rate of peak Aß 12–17 (dual cleavages E^11-V^12, L^17-V^18)” value (Aß1–40 [10]; [12]) was 1 Δarea/min/ng. The “Accumulation rate of peak Aß 20–28 (dual cleavages F^19-F^20, K^28-G^29)” value (Aß1–40 [10]; [12]) was 5 Δarea/min/ng, the “Accumulation rate of peak Aß 20–29 (dual cleavages F^19-F^20, G^29-A^30)” value (Aß1–40 [10]; [12]) was 6 Δarea/min/ng and the “Accumulation rate of peak Aß 20–30 (dual cleavages F^19-F^20, A^30-I^31)” value (Aß1–40 [10]; [12]) was 26 Δarea/min/ng. The “Presence of wild-type product peaks from Aß1–40 (in words)” value (Aß1–40 [10]; HPLC profile at ∼30% hydrolysis, Aß1–9 peak in case of NEP^F563L) was “the peak corresponding to Aß1–9 was not present”, the “Cleavage at L^17-V^18 in Aß1–40 relative to wild-type NEP” value (Aß1–40 [10]; product Aß1–17) was 25% and the “Cleavage of the G^9-Y^10 bond in Aß1–40 (in words)” value (Aß1–40 [10]; versus NEP, inferred from Aß1–9, Aß10–17) was “much slower rate; also recorded: appears to cleave the G^9-Y^10 bond”.
